These results are taken from patent US20230220115A1.

Bounds are passed on as bounds.

As a reminder, the Kd is the equilibrium constant for the complex coming apart.

The target in experiment [1] is recombinant human Fc gamma receptor CD16a 158V (FcRγIIIa) (human) (UniProt P08637).
The target in experiment [2] is recombinant human Fc gamma receptor CD16b (FcRγIIIb) (human) (UniProt O75015).
Experiment [3] deals with recombinant human Fc gamma receptor CD32a 131H (human) (UniProt P12318).
For experiment [4], the target named is recombinant human Fc gamma receptor CD32a 131R (human) (UniProt P12318).
Chain of recombinant human Fc gamma receptor CD32a 131R (human) (P12318 36-218 H167R): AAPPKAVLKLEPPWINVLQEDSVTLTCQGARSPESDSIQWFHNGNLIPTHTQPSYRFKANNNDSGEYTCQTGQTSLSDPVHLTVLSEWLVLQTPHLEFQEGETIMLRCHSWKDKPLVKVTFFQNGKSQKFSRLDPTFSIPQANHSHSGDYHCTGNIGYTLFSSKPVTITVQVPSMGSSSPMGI
Experiment [5] has as its target recombinant human Fc gamma receptor CD32b/c (human) (UniProt P31994).
The target of experiment [6] is recombinant human Fc gamma receptor CD64 (FcRγI) (human) (UniProt P12314).
Chain of recombinant human Fc gamma receptor CD64 (FcRγI) (human) (P12314 16-288 limits assumed): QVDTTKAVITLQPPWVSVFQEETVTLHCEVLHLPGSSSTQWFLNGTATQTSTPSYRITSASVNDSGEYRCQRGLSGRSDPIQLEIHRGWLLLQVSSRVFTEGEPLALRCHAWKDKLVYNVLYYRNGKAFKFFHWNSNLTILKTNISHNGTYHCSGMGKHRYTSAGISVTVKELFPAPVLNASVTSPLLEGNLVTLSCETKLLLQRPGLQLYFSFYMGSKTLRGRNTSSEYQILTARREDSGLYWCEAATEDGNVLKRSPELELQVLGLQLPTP
The next experiment has as its target CD20 Lipoparticles (UniProt P11836).

Chain of recombinant human Fc gamma receptor CD32a 131H (human) (P12318 36-218): as the sequence (P12318 36-218 H167R) above, with R132H counted along it
Chain of recombinant human Fc gamma receptor CD16b (FcRγIIIb) (human) (O75015 17-200 limits assumed): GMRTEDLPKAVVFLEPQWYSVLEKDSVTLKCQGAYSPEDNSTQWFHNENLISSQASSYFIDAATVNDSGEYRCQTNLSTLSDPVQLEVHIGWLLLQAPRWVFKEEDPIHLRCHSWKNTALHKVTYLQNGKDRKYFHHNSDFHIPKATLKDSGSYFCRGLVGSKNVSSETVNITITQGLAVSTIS
Chain of recombinant human Fc gamma receptor CD16a 158V (FcRγIIIa) (human) (P08637 17-208 F176V limits assumed): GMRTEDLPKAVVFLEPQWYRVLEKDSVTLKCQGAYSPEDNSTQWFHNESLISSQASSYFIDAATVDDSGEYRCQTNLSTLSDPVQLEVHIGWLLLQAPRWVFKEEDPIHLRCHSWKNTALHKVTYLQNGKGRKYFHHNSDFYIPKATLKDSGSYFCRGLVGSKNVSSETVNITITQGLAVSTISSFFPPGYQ
Chain of recombinant human Fc gamma receptor CD32b/c (human) (P31994 46-217): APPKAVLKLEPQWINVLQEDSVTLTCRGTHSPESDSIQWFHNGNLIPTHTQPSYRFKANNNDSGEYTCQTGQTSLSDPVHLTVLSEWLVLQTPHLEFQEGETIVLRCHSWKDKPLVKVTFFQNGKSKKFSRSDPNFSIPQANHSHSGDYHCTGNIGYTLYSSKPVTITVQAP
Chain of CD20 Lipoparticles (P11836 whole entry): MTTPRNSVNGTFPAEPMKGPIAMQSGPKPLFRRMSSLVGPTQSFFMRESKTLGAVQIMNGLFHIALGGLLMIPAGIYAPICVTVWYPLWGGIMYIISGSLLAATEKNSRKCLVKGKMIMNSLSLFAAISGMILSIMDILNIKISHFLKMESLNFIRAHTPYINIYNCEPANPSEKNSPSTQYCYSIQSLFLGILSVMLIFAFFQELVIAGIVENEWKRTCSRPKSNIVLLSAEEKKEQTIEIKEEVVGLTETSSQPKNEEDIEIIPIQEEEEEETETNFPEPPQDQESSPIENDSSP

Regarding Rituxan (antibody), the Kd was 715 nM in experiment [1]; 1530 nM in experiment [2]; 892 nM in experiment [3]; 1250 nM in experiment [4]; 1520 nM in experiment [5]; 52.8 nM in experiment [6]. Also, the Kd in the experiment with CD20 Lipoparticles is < 1 pM.
